Tested on: Saccharomyces cerevisiae
Assay: transcriptional activation domain activity (GFP:mCherry ratio, weighted mean of sorted bins, harmonized to initial dataset scale) (arbitrary fluorescence ratio units); higher = stronger transcriptional activation
Conditions: beta-estradiol 1 µM; induction time 4 h
Procedure, shortened: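 For this assay, yeast diploids with a GFP reporter carried barcoded protein tiles at URA3, each fused to an estradiol-inducible synthetic transcription factor. Induction was a 1:5 dilution into SC with 1 uM beta-estradiol for 4 hours at 30 °C, followed by sorting into 8 bins by GFP:mCherry ratio and barcode sequencing. Tiles under 50 reads were dropped, and activation activity was calculated as the read-weighted mean of bin median fluorescence, averaged across barcodes and linearly mapped onto the initial dataset scale.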

| Sequence | transcriptional activation domain activity |
| --- | --- |
| MNYLELSLVILTCLWDILLVVTFCSYRRIFRRVNMVNIMTISLLKHLSVFCLF | 52300 |
| MNYLFSCFKFFLFFFFFLLFSFSPHLFFIFSCLLYLACLCVCVWWKGPFSCIS | 72500 |
| MPAIFFGSQIGGETLQPLSYTGLPWKLLIQDILLFLRWCYYLPNIVIPLWPWP | 67400 |
| MPALQCALLLHQVNMAFLQWNCMLYTIYHFRIIHIIILLLHMCTRTIICLLNG | 37700 |
| MPASSSTAAASPGNSHNVVGVHYKVGKKIGEGSFGIIYEGKQKEERTNLLNNQ | 35300 |
| MPAVKKDAPSQRQQDKESKRARGALSCAECRRLKLKCDKTVPCSSCKRRGCSA | 34600 |
| MPAYLDKPLTFLAFDWCVTFFFFCCFFLLILFLSLLVINVIVLCLLPLISLVS | < 6570 |
| MPCLCHFWMTCLCHFRMPLFFYFQMPCLCHFWMTCLCHFLMPCLFYFWMPFLC | 43200 |
| MPDVIFKPPPADPCHYDMCLVLYYSVLFSHFIVGFFLRVLHLWCSLLHFYSRI | 63500 |
| MPDVWLSWLVLSFAPSPPFHHFLWFWFCLIAWFIFFRPITWTFDTLFWFLFLP | 43400 |
| MPEETVTEPRKKRAKIMSACSECRRKKTKCNGEQPCRNCQKSSVQCVYPAATQ | 36500 |
| MPEPAAAAAPRQRAFRTKSRLGCLQCKRRHVKCDERRPRCGRCVAAGSDCSLQ | 17400 |
| MPEVESARPTTSSKCIVLFYLFFLPCLSPFLYFLMLTMASVPSPLGFLLLLVC | 66100 |
| MPFFSDFLFLFLFFFLEFFFFFFLPGFRLGYSSLFSSLLFFFFGFPIPPPHLS | 46200 |
| MPFGRRSAFGVFFIYHFFFVLHLIFTGFQSIFVYIGLSKLFFFWFGPFFFLFP | 61800 |
| MPFNLPPRAIGVATRVLEELGLFNIYKSCIDTKILCIQRFVRLFAYGGSTLVL | 44200 |
| MPFRNCFACIICCSWLLYLDVLLILSMYSIYFMGGFARYLFWFIYWFFGIMEL | 44800 |
| MPFSVSASNILLSPFHLIFWSIRNFSNILIFLFSPFFLVLYYASYVFTPIFIP | 96500 |
| MPFYMPSKGLAIKDFVGQIALIIKVYVNPITLVSISYHYYMFFLSLNCLWLFL | 65100 |
| MPGGWVFLMSIAFYYFILLFFLLLPMIYGFLFVCLFGVGTCFVICTFGFFPFF | 62400 |
| MPGHALVDIQNTFGCTFIGLVISILYLILNFGNVENLEYNMWAMNLQVDITGL | 56500 |

| Sequence | transcriptional activation domain activity |
| --- | --- |
| MPGLCIWYGVFWVVGFFSFFLLVLRVMGFLVCVFVRLVCVCFFRAFDICFFFS | 34500 |
| MPGTCTLPYYSNLPIMLVLVLIRRSNYFFFLVSLTTGSFLTTFFSLFSVRLPL | 67000 |
| MPGVTGHHLTSWYWLSFIFIFLFYFALLVVFIWVIFSYLFTHLIRFGHAVVVS | 29000 |
| MPHLCVSVCLFLVLVMKRWLHVCRDIICRSLSWPEYEFSHFCSLIMRVLMLLL | 76300 |
| MPHTHLIFESCFFIVFSPNDLLTTDYLFFLPFPFPFPFPFLFPFPFLFPFLFL | 63100 |
| MPHYNSFNMDFSKLRNACGIVLLHWRRYRRILWLIAKNFMRLRGLVSLFDSGP | 48600 |
| MPIGCLMRQVHWHRAEMREYQACLLIFQALLCTTGDPFAHILMYMWFGILYRF | 58800 |
| MPIGPIIMLYPMRKHHSILPCKIQRLLEYLWSFLLIQKDWYRYEQTNKYSIMA | 40100 |
| MPILMQFCFIMALNGICNSMHLYAAYNLRTHVLARVFWSILWLLLRSLCSAGW | 70700 |
| MPIPLRLPFPFCFWVRMGLLDVYYHTVGGLYGYVLGGGVVICWRWWCFSFFCL | 55500 |
| MPKLNLYKIFLSILCSVVILVVWFPNLESILLLRVLVFHLVKYIGLCLLFFLC | 56000 |
| MPLCSLHTYKGGWLWLWWLRWWWRNNNCEALNFSFFFFFFFFLFLFRGVDGVL | 66000 |
| MPLFCSISPSFHESVHFWFFFFFFLSLTLFPSFRLVSYFCTFFLFLNWVNRGF | 44800 |
| MPLLPRWRGKACKVVILAQFDHRYYIHGTLKRLTDVVAWLKAWWICVFWLGSR | 61300 |
| MPLMIIFRFTIFIFILFQFLSFPSFGRGVFLSFIFFFIIFFSFHDQLFLILFF | 57000 |
| MPLMIIFRFTIFYFYFVSIFFFLFLLLVGEFFFLLSFFFFLSFVFFLFTISYF | 37100 |
| MPLPLIFVYLSGQMLSFLGSLFGVYMYFASLVLNYLGLFSSLRLRLWSFFLTA | 66200 |
| MPLPPGISYILKRAPSLLLPGVITYFASKYVVNYCRLTLPRWILCALVLLAKP | 86300 |
| MPLPPLSLSLLVLHSRHSQHSFSLHTYTLTFLFYFPYLLIDLDYLAFFFIFFP | 41400 |
| MPLQLRCLYNCDVSLIVMLLLGLLLGIFPSLHIEICICSRDLLLICMGMWPVR | 45500 |
| MPLRLRCNCILFYLLFFPLFFFNSTCDFSILLVIFFYSTFSLDFSSFLLFFFF | 55500 |

| Sequence | transcriptional activation domain activity |
| --- | --- |
| MPLSPPLYFIVFLYLQFQLYAYFICYFYILLSFYSSTHPVLSFYPLYYPFYLL | 61300 |
| MPLVRRLGAGGDRGAGTVRVRVATSSHTPHHLKVVVLSKVPFLLPDIVVDRMQ | 12900 |
| MPLWPPFWSAFSFSFSFVLSFFFFLFPFPFPFPFPFSFSLSFLFFLFFSFLFF | 31000 |
| MPMDILVFYIPHRIKFCFFFFYLFIFFIFLPSYLIFYCTVTSAFLLFLYLYYL | 26000 |
| MPMLLIIFPLLYFLYCIHNLFHIISHYYEVFNTFYIVILHLSFLFYLHFILFH | 69500 |
| MPNAGIWCARWFIPLLFLPLPSASPYFLTVFIFSLIVQARPCFYCILMLTALF | 58200 |
| MPNCLNIRFFLFFLLKFLYAPLSFLLFPYPSHAYLFFHVLLLINCLFVDVIPV | 54600 |
| MPNDWFIYGCIFLECYISYGVYIRVWFLLMDFVLGPISHLSIYFLWIWFILLC | 66900 |
| MPNEESKPVDQAAQEAEASKAVEELKLDEGSASKGKSSKKDKIKNAISSISSS | 26800 |
| MPNKLVYEICFVHLTINCLCRGCLMYCALYIILIIKYHNHLLYFIFFNFMAIP | 38200 |
| MPNLGLRREWYKGDFSVKYTQLTLIYLVMCVWFPSCLGGYMLTLQYIMLLLIM | 68600 |
| MPPAPKSPQARRAGAPKAKGAVRAKSGCYTCRIRRKKCDEQMNPEGSCSTCVR | 37400 |
| MPPAPKSPQPRRPGAPKSKGAVRAKSGCYTCRIRRKKCDEQMNAEGSCSTCVR | 42800 |
| MPPCGLVSLTCLTELVLGLNITACVVILVDGNHLIYILSLFFWCWILLTLPAT | 35500 |
| MPPFFFGLWRIFFFFFFFFCKQLWWTVEFVTYVSCFFFLLNKLVFWLFFFSVC | 58500 |
| MPPFLFSEGAFMFRICFFPLCLWWCLFLFFSFFLLLQFLSYGFAFSCGRYILF | 65100 |
| MPPHSEIDDIFAAKHSEPAPPPPPQKKKSKKRKRDAAAATVAPAAAPPPAAPA | 46500 |
| MPPKRGRPKKASTPPPAPVEDEAPAPVAAPRGRGRPRKVQPSGDPEQTTAPTP | 28500 |
| MPPLLQLRLVHFLQLCLLLLLLLLRLHLLELLHFLLVFLLHRSILLLCQICSL | 54800 |

Source: the supplement of paper PMC12636428
